Assay results reported in patent US20100028415A1.

How the values were obtained:
centromere B = centromere B (UniProt P07199); test: Luminex AtheNA Multi-Lyte ANA Test, 0.15 µg mab per test
histones = test: as above
SS-A/Ro = test: as above
Mab 4E10 = test: competition ELISA: gp140 (19.25-1230 nM) mixed with 10 µg/ml 4E10 MAb, added to wells with 1.35 µg cardiolipin

UniProt P07199, sequence (P07199 2-599 limits assumed): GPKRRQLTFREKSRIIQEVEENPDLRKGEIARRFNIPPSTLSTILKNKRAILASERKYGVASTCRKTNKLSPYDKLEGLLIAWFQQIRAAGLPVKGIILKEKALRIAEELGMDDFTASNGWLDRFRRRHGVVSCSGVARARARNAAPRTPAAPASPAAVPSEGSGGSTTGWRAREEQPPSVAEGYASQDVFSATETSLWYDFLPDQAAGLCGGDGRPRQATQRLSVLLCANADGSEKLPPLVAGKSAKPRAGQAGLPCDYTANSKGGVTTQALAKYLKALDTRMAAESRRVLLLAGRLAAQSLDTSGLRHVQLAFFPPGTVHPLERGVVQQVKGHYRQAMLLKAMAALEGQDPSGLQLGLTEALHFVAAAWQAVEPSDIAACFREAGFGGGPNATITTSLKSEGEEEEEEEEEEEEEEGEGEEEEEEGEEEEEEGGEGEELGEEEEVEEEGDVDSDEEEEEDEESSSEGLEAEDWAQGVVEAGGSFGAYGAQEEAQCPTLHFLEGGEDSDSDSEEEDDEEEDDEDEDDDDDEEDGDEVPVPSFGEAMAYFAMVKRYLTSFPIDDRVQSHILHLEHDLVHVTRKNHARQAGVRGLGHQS

Substance	centromere B antibody value (relative units based on a standard curve) (relative units) (centromere B)	histone antibody value (relative units based on a standard curve) (relative units) (histones)	Ro (SSA) antibody value (relative units based on a standard curve) (relative units) (SS-A/Ro)	IC50 (Mab 4E10) [nM]
Mab IgG1b12 (antibody)	479	185	–	–
Mab 4E10 (antibody)	–	–	221	–
soluble HIV-1 Env gp140 oligomers (CON-S)	–	–	–	145
A32 (antibody)	1130	–	–	–
Mab 2F5 (antibody)	1780	1010	290	–
